Experimental data published in IntAct's records for PubMed 16803958.

B1: Protein CBFA2T1 (Homo sapiens), Q06455-4 (parent)
chain: MPDSPVDVKTQSRLTPPTMPPPPTTQGAPRTSSFTPTTLTNGTSHSPTALNGAPSPPNGFSNGPSSSSSSSLANQQLPPACGARQLSKLKRFLTTLQQFGNDISPEIGERVRTLVLGLVNSTLTIEEFHSKLQEATNFPLRPFVIPFLKANLPLLQRELLHCARLAKQNPAQYLAQHEQLLLDASTTSPVDSSELLLDVNENGKRRTPDRTKENGFDREPLHSEHPSKRPCTISPGQRYSPNNGLSYQPNGLPHPTPPPPQHYRLDDMAIAHHYRDSYRHPSHRDLRDRNRPMGLHGTRQEEMIDHRLTDREWAEEWKHLDHLLNCIMDMVEKTRRSLTVLRRCQEADREELNYWIRRYSDAEDLKKGGGSSSSHSRQQSPVNPDPVALDAHREFLHRPASGYVPEEIWKKAEEAVNEVKRQAMTELQKAVSEAERKAHDMITTERAKMERTVAEAKRQAAEDALAVINQQEDSSESCWNCGRKASETCSGCNTARYCGSFCQHKDWEKHHHICGQTLQAQQQGDTPAVSSSVTPNSGAGSPMDTPPAATPRSTTPGTPSTIETTPR

Variants of: B1
Conditions: with TCF12, Q99081-3
Chain of TCF12, Q99081-3 (Q99081 other isoform, or with tags, fused parts or gaps): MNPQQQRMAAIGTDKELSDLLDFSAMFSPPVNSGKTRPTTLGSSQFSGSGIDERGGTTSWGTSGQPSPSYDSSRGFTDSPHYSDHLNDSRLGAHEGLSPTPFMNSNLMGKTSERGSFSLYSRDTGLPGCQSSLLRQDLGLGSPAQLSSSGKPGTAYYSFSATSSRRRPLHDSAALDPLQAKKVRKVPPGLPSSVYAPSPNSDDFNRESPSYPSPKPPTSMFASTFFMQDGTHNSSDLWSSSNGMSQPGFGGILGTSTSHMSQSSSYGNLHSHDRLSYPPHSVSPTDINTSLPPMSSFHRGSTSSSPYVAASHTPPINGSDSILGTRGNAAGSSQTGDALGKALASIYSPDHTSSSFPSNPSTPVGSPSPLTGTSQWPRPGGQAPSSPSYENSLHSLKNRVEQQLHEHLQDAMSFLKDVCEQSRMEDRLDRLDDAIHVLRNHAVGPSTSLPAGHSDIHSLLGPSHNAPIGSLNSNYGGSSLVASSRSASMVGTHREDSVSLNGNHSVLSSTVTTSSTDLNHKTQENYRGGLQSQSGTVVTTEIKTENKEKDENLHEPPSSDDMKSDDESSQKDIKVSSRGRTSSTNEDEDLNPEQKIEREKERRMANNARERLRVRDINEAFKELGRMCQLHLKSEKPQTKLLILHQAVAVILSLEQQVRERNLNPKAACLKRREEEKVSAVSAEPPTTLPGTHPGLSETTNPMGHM

| effect of a mutation on the interaction | Variant |
| --- | --- |
| disrupting interaction strength | R141D |
| disrupting interaction strength | R141A |
| decreasing interaction strength | L89A |
| disrupting interaction strength | F147A |
| disrupting interaction strength | F92A |
| disrupting interaction strength | K88A |
